# In patent US20140363427A1:
# B1: IgG form of 90D3 (antibody, V domains shown)
# VH: QVQLVESGGGLVKPGGSLRLSCVGSGFTLKNYEMNWVRQAPGQGLQYISYISSSGNVVKYVDSVQGRFTISRDNAGNSLYLQMNNLRAEDTATYYCVRGFSIDKYDSSVDEYWGQGIAVTVSS
# VL: AIRLTQSPSSLSASVGDRVSITCRASQSISNFLNWYQQKPGRAPKLLISAASSLQGGVPSRFSGSGSGTDFTLTISSLQPEDFATYYCQQTYISLYTFGQGTKLEIKR
# Key:
# [1] = substrate: F protein of RSV B-wash (strain 18537) (respiratory syncytial virus B, strain 18537) (UniProt P13843); test: cell-based or functional assay
# [2] = substrate: F protein of RSV B-1 (respiratory syncytial virus B-1) (UniProt O36634); test: cell-based or functional assay
# Chain of F protein of RSV B-1 (respiratory syncytial virus B-1) (O36634 26-574): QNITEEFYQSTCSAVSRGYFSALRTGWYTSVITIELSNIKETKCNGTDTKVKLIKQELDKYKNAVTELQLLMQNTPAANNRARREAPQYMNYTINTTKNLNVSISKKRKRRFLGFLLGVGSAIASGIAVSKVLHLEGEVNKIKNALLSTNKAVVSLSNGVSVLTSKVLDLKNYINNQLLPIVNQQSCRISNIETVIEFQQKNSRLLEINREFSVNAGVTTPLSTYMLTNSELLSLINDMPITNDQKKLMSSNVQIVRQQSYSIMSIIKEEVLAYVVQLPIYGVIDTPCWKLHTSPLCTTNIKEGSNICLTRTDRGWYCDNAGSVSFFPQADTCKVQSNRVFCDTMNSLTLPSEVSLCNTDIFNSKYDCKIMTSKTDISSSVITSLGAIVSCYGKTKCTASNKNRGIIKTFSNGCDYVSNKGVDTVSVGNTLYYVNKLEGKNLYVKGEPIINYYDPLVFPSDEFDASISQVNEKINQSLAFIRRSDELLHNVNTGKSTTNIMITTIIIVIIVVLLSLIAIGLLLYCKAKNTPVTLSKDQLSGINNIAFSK
# Chain of F protein of RSV B-wash (strain 18537) (respiratory syncytial virus B, strain 18537) (P13843 26-574): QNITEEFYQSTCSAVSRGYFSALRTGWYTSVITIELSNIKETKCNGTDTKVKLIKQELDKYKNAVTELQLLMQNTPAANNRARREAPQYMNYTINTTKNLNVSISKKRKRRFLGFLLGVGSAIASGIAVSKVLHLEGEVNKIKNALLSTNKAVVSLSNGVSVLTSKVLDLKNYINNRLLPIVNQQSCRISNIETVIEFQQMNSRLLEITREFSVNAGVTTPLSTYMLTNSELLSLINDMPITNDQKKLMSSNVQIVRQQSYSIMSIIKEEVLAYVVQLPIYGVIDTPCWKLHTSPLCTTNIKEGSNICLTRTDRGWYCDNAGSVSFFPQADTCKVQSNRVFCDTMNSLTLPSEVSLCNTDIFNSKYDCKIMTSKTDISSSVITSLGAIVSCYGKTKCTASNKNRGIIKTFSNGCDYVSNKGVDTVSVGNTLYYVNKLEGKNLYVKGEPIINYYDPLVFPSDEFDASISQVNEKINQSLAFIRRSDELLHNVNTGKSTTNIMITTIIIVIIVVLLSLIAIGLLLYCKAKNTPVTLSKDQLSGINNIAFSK
binder,measurement,setting,value
B1,"ED50, plaque reduction, RSV B/wash",[1],1.4 nM
same,"ED50, plaque reduction, RSV B-1",[2],1.4 nM
